The source of these data is paper PMC3247260 (2011).

One may read the Kd as the free concentration of one partner at which half of the binding sites on the other are occupied at equilibrium, for simple one-to-one binding. A low value points to a tighter complex.

Some targets named below: ubiquitin (Ub) (UniProt P0CG48 1-76); linear diUb (UniProt P0CG48 1-76; P0CG48 1-76); K48-linked diUb (UniProt P0CG48 1-76, K48-linked (isopeptide linkage between the two Ub units)).
Holding throughout (experiment): ITC
(In general: ITC needs no label: the signal is the heat of the interaction.)

B1: tandem UBA domains of USP13 (USP13-UBA12, residues 652-776) (domain or fragment)
chain: DIDESSVMQLAEMGFPLEACRKAVYFTGNMGAEVAFNWIIVHMEEPDFAEPLTMPGYGGAASAGASVFGASGLDNQPPEEIVAIITSMGFQRNQAIQALRATNNNLERALDWIFSHPEFEEDSDF
For the molecule B1, the dissociation constant Kd with ubiquitin (Ub) is 21000 nM; with linear diUb, 2300 nM; with K48-linked diUb it was 1800 nM.
